Earlier results as cited in patent publication US20060182683A1, “Methods for reduced renal uptake of protein conjugates” (Center for Molecular Medicine and Immunology, priority 1995, published 2006).

Tests used:
[1] = tested on: protein synthesis in a rabbit reticulocyte lysate; conditions: read-out: IC50, inhibition of protein synthesis; cited from earlier work
Xenopus oocytes = conditions: microinjected into Xenopus oocytes; read-out: IC50, inhibition of protein synthesis; cited from earlier work
[2] = target: T1, mammalian placental ribonuclease inhibitor (Homo sapiens, UniProt P13489); conditions: cited from earlier work
T1 sequence (P13489 1-461): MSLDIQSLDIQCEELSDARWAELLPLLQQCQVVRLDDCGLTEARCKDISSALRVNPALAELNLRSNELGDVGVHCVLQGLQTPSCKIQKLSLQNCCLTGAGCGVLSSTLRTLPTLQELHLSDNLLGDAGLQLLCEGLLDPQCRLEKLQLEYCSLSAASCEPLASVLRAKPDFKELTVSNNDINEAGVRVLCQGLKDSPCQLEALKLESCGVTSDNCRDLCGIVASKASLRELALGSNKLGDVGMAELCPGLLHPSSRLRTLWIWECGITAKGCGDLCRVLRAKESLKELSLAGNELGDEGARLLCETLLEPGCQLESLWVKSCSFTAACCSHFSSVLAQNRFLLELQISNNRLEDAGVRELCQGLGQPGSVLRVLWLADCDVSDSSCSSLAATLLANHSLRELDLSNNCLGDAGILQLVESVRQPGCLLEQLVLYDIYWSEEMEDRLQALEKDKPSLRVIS

rats = conditions: dose range 0.01-0.02 mg/kg; cited from earlier work
dogs = conditions: 0.005-0.15 mg/kg; cited from earlier work
[3] = tested on: M109 Madison lung carcinoma; conditions: cited from earlier work
[4] = tested on: patients suffering from a variety of relapsing and resistant tumors; conditions: intravenous; mainly due to renal toxicity; cited from earlier work

B1: ranpirnase (protein, UniProt P22069 1-104, looked up)
Protein P-30: QDWLTFQKKHITNTRDVDCDNIMSTNLFHCKDKNTFIYSRPEPVKAICKGIIASKNVLTTSEFYLSDCNVTSRPCKYKLKKSTNKFCVTCENQAPVHFVGVGSC
notes: non-mammalian ribonuclease (RNAse), molecular weight 12,000, purified from Rana pipiens oocytes and early embryos
IC50 [1]: 0.01 nM | IC50 (Xenopus oocytes): 0.1 nM | inhibition by mammalian placental ribonuclease inhibitor [2]: not inhibited | toxicity (rats): predictable, dose-dependent and reversible toxicity | toxicity (dogs): predictable, dose-dependent and reversible toxicity | survival ([3]; daily and weekly schedules, intraperitoneal): significantly prolonged survival | animals surviving long-term, apparently cured ([3]; weekly schedule): six of eighteen | maximum tolerated dose [4]: 960 μg/m^2
